Results: publication PMC3048587 (Biochemistry, 2011)

Target: Rac W56F mutant (UniProt P63000 1-192, W56F)
Assay: cell-based or functional assay

- Mant-GDP nucleotide exchange (GEF activity of DHR-2c), relative to wild-type Rac: < 10 % of the level of wild-type Rac
B1: Dock180^DHR-2c (C-terminus of DHR-2 in Dock180, residues 1335-1657) (domain or fragment)
chain: KPDYFAVGYYGQGFPTFLRGKVFIYRGKEYERREDFEARLLTQFPNAEKMKTTSPPGDDIKNSPGQYIQCFTVKPKLDLPPKFHRPVSEQIVSFYRVNEVQRFEYSRPIRKGEKNPDNEFANMWIERTIYTTAYKLPGILRWFEVKSVFMVEISPLENAIETMQLTNDKINSMVQQHLDDPSLPINPLSMLLNGIVDPAVMGGFANYEKAFFTDRYLQEHPEAHEKIEKLKDLIAWQIPFLAEGIRIHGDKVTEALRPFHERMEACFKQLKEKVEKEYGVRIMPSSLDDRRGSRPRSMVRSFTMPSSSRPLSVASVSSLSSDS
